According to patent US20020098537:

Key:
[1] = target: single chain HGF (hepatocyte growth factor), P14210
[2] = target: T1, novel protein having inhibitory activity on the protease activity of HGF activator (HAI-I), purified from MKN45 cell culture supernatant
T1 sequence (O43278 36-529, looked up): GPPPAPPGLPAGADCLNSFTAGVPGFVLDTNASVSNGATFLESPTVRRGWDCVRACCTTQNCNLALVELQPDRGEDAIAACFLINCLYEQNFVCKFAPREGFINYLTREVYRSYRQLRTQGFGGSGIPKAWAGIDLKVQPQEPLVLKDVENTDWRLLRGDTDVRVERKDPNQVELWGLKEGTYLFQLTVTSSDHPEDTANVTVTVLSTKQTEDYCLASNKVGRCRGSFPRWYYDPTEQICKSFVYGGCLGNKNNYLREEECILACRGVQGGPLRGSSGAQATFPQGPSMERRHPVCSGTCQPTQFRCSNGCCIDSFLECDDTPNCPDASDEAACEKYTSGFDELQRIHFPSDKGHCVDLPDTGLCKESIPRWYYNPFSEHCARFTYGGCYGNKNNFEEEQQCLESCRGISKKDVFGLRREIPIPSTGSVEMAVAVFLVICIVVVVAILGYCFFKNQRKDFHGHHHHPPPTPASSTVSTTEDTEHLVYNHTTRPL

Chain of single chain HGF (hepatocyte growth factor), P14210 (P14210 32-728): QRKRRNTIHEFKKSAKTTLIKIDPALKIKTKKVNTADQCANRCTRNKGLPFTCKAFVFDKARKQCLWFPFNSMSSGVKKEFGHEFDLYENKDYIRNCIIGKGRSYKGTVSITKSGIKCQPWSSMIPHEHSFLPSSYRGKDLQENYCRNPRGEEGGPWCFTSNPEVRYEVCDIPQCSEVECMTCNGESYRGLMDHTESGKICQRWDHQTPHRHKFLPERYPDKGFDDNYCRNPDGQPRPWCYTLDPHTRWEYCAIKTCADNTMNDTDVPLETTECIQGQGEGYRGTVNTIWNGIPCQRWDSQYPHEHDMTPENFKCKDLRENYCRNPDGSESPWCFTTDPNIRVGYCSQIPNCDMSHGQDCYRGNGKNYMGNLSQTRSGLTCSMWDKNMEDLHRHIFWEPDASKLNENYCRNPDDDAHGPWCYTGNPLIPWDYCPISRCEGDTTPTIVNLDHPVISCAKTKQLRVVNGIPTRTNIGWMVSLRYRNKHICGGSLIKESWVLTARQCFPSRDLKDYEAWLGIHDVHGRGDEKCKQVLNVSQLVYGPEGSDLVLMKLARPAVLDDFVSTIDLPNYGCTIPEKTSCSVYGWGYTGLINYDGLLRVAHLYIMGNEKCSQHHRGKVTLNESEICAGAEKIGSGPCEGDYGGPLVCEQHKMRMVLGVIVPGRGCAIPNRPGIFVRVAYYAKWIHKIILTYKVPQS

B1: serum-derived hepatocyte growth factor activator (HGF activator) (protein)
chain: VQLSPDLLATLPEPASPGRQACGRRHKKRTFLRPRIIGGSSSLPGSHPWLAAIYIGDSFCAGSLVHTCWVVSAAHCFSHSPPRDSVSVVLGQHFFNRTTDVTQTFGIEKYIPYTLYSVFNPSDHDLVLIRLKKKGDRCATRSQFVQPICLPEPGSTFPAGHKCQIAGWGHLDENVSGYSSSLREALVPLVADHKCSSPEVYGADISPNMLCAGYFDCKSDACQGDSGGPLACEKNGVAYLYGIISWGDGCGRLHKPGVYTRVANYVDWINDRIRPPRRLVAPS
[1]
  conversion of single chain HGF to double chain HGF (SDS-PAGE under reducing conditions, CBB staining): the activity of HGF activator converting single chain HGF to double chain HGF
[2]
  conversion of single chain HGF to double chain HGF by HGF activator (SDS-PAGE under reducing conditions, CBB staining); 10 ng protein, 5 ng HGF activator, 10 ug single chain HGF: Addition of the protein resulted in suppression of the activity of HGF activator converting single chain HGF to double chain HGF.
